Measurements: patent US20190376034A1

Target: immune complexes (Dylight 650-labeled BSA + polyclonal rabbit anti-BSA IgG + human serum complement) (bovine) (UniProt P02769)
Assay: cell-based or functional assay

Chain of UniProt P02769 (P02769 25-607, one chain of several): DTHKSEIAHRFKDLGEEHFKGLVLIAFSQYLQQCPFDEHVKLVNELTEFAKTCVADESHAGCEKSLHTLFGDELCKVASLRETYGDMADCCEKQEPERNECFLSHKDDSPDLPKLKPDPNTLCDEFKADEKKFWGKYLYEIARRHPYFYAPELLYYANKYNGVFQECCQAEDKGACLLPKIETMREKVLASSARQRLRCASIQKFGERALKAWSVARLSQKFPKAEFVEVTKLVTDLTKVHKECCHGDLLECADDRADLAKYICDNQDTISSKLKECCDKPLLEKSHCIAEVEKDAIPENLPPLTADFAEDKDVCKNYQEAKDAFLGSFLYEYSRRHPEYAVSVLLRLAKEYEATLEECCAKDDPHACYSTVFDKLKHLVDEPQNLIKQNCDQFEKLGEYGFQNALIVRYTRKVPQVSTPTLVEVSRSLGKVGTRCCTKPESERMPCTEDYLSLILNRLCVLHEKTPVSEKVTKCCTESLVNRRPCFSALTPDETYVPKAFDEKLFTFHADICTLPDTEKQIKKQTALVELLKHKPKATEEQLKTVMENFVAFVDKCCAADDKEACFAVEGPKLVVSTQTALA

uptake of fluorescent immune complexes by activated U937 macrophages in co-culture (flow cytometry): 2 fold
Substance: complement receptor 1 (CR1) exogenously over-expressed on the surface of cultured erythroid cells (from UniProt P17927 42-2039)
